What was measured:
[1] = molecular target: FITC-PRDM14_(197–213) (human); experiment: fluorescence polarisation
Nsp3 Ubl1 (SARS-CoV-2) = Nsp3 Ubl1 (SARS-CoV-2) (UniProt P0DTD1); experiment: fluorescence polarisation

## Nsp3 SUD-M A1397E, V1453K, S1478D (from UniProt P0DTD1 819-2763) (domain or fragment)
[1]
  fold reduction of affinity against wild-type Nsp3 SUD-M: 100 fold

## Y to V mutant of the NCOA2_(1074–1089) peptide (from UniProt Q15596 1074-1089)
Nsp3 Ubl1 (SARS-CoV-2)
  fold lower affinity than NCOA2 (1074–1089): 20 fold

— publication PMC10499821
